Key:
[1] = target: human CD32 Fc receptor on NK92-MI cells (human); assay: cell-based or functional assay; details: for LAN1-CD32 Potency: scale: relative to m3F8
[2] = target: human CD16 Fc receptor on NK92-MI cells (human) (UniProt P08637); assay: cell-based or functional assay; details: for LAN1-CD16 Potency: scale: relative to m3F8
Sequence of human CD16 Fc receptor on NK92-MI cells (human) (P08637 17-254): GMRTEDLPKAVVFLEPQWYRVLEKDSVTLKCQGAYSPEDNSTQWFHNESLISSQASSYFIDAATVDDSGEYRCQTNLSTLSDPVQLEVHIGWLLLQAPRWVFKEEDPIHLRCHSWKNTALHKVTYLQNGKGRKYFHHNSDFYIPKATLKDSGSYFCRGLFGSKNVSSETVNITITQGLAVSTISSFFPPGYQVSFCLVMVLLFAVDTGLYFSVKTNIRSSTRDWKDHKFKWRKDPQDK

M14-CD32 Potency (relative to m3F8) [1]	LAN1-CD32 Potency [1]	Antibody potency using NK92-CD16 ADCC, BE(1)N (relative potency (m3F8 = 1)) [2]	Antibody potency using NK92-CD16 ADCC, LAN1 (relative potency (m3F8 = 1)) [2]	Antibody potency using NK92-CD16 ADCC, NMB7 (relative potency (m3F8 = 1)) [2]	Antibody potency using NK92-CD16 ADCC, SHEP1 (relative potency (m3F8 = 1)) [2]	Antibody potency using NK92-CD16 ADCC, SKNLP (relative potency (m3F8 = 1)) [2]	M14-CD16 Potency (relative to m3F8) [2]	LAN1-CD16 Potency [2]	Substance
6	2	1	0.4	1	1	1	1	4	14.G2a (antibody)
1	1	1	1	1	1	1	1	1	murine 3F8 (antibody)
			0.2						heat modified m3F8 (antibody)
21	8		4		3	8	9		ch14.18 (antibody)
